{"source": "paper PMC6789926"}
{"biological_target": "tetrameric soluble CedV G (sG) (Cedar virus)", "assay": "SPR", "units": {"Kd": "nM", "koff": "s⁻¹", "kon": "M⁻¹ s⁻¹"}}
{"molecule": "mouse ephrin-B1 (soluble, Fc-conjugated) (from UniProt P52795 25-345) (Fc fusion)", "Kd": 0.24, "koff": 0.00029}
{"molecule": "mouse ephrin-B2 (soluble, Fc-conjugated) (from UniProt P52800 29-232) (Fc fusion)", "Kd": 0.56, "koff": 0.00103, "kon": "1.84e+06"}
{"molecule": "human ephrin-A1 Fc (Fc fusion)", "Kd": 4210, "koff": 0.00981}
{"molecule": "mouse ephrin-A2 (soluble, Fc-conjugated) (Fc fusion) RNEDPARANADRYAVYWNRSNPRFQVSAVGDGGGYTVEVSINDYLDIYCPHYGAPLPPAERMERYILYMVNGEGHASCDHRQRGFKRWECNRPAAPGGPLKFSEKFQLFTPFSLGFEFRPGHEYYYISATPPNLVDRPCLRLKVYVRPTNETLYEAPEPIFTSN", "Kd": 196, "koff": 0.00636, "kon": 32400}
{"molecule": "human ephrin-A5 (soluble, Fc-conjugated) (Fc fusion) QDPGSKAVADRYAVYWNSSNPRFQRGDYHIDVCINDYLDVFCPHYEDSVPEDKTERYVLYMVNFDGYSACDHTSKGFKRWECNRPHSPNGPLKFSEKFQLFTPFSLGFEFRPGREYFYISSAIPDNGRRSCLKLKVFVRPTNSCMKTIGVHDRVFDVNDKVENSLEPADDTVHESAEPSRGEN", "Kd": 113, "koff": 0.00079}
{"molecule": "mouse ephrin-A1 (soluble, Fc-conjugated) (Fc fusion) ADRHIVFWNSSNPKFREEDYTVHVQLNDYLDIICPHYEDDSVADAAMERYTLYMVEHQEYVACQPQSKDQVRWNCNRPSAKHGPEKLSEKFQRFTPFILGKEFKEGHSYYYISKPIYHQESQCLKLKVTVNGKITHNPQAHVNPQEKRLQADDPEVQVLHSIGYS", "Kd": 24.5, "koff": 0.00179, "kon": 73900}
